The supplement of paper PMC9170038

Tested on: MS2 coat protein
Assay: apparent KD of MS2 coat protein; designed switch direction (-1 OFF switch, 1 ON switch): -1; higher = weaker reporter binding
Summary of the method: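 Designed RNA switches sharing common flanks were transcribed on Illumina chips by stalled E. coli RNA polymerase. They were titrated with SNAP-549-labelled MS2 coat protein, from 0.7 or 1.5 nM doubling to 3 µM, in Tris-HCl pH 7.5 buffer with KCl, MgCl2, BSA, DTT, tRNA and Tween-20. Titrations ran without input, with 200 uM small-molecule ligand, or with an oligonucleotide input. The apparent KD of each design is the median over its clusters, after curve-fitting of normalised cluster fluorescence.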

[1] = Eterna round: R95, input ligand: microRNA oligo, concentration not stated
[2] = input ligand: microRNA oligo, concentration not stated
[3] = Eterna round: R95, input ligand: FMN 200 uM
[4] = Eterna round: R95, input ligand: none

| Sequence | apparent KD of MS2 coat protein (input ligand: FMN 200 uM) [nM] | apparent KD of MS2 coat protein (input ligand: none) [nM] | other results |
| --- | --- | --- | --- |
| UCGGCGCGAGGAUAUGCGGUUUGUGCUUUGGGCCCUCGCGUACAUGAGGAUCACCCAUGUAGAAGGCGCGCCGC [Apr-15 SS2-46] (puzzle: Exclusion 2) | – | – | apparent KD of MS2 coat protein [1]: 95.6 nM |
| UCGGGAAGAGGAUAUACAUAGAAAUAGAUUCAUGUAAAACUACAUGAGGAUCACCCAUGUAGAAGGCUUUCCGU [Mat - Exclusion 2 - JL Mod - D55] (Eterna round: R97, puzzle: Exclusion 2) | 146 | 24.2 | – |
| UCGGUGCGAGGAUAUACGUUUGCGCGUUUUCGUUUGCGCGUACAUGAGGAUCACCCAUGUAGAAGGCGCGCGGC [Apr-15 SS2-12] (puzzle: Exclusion 2) | – | – | apparent KD of MS2 coat protein [1]: 11.8 nM |
| UCGUAGUCAGGAUAUACAUGAGGAUCACCCAUGUAAAAUUUUAAUUUAAUUUUAAGGUGUAGAAGGGACCAUUU [Ex3 #21] (Eterna round: R97, puzzle: Exclusion 3) | 46.7 | 45.8 | – |
| UCGUCCUGUGUAGGAUAUCGCGGGCUUUGCCCGCGAGAAGGACAUGAGGAUCACCCAUGUGGGCCGCGCCGCGGGCGCGGCCCA [new design] (Eterna round: R96, puzzle: Exclusion NG 1) | 1360 | 230 | apparent KD of MS2 coat protein [2]: 4700 nM |
| UCGUGGAUCGAGGAUAUGCCACGGACAGACGCCGCAGAAGGCGAAACAUGAGGAUCACCCAUGUGUGCCAUCCU [Eternabot (L1) Solution 52] (Eterna round: R97, puzzle: Exclusion 6) | 58.5 | 56.5 | – |
| UCGUGUAUAGAGGAUAUAUUAUUUAUUUAAACAAUAGAAGGCUAAACAUGAGGAUCACCCAUGUAUUUGGUUUU [JR_Ex6_Sub052] (Eterna round: R97, puzzle: Exclusion 6) | 59.9 | 21.8 | – |
| UCGUGUCGAGAGGAUAUCUAGGACACCCUUCCAAGAGAAGGCUUGACAUGAGGAUCACCCAUGUACGGGUAAAU [EX6 A.9] (Eterna round: R97, puzzle: Exclusion 6) | 25.6 | 39.9 | – |
| UCGUGUCUUGAGGAUAUGUUUGAAAAGGCCCACGCAGAAGGCGAGACAUGAGGAUCACCCAUGUCACAGCUCCG [EX6 C.16] (Eterna round: R97, puzzle: Exclusion 6) | 56.4 | 18.6 | – |
| UCGUUCCGUGUAGGAUAUUGGCCUUCCCUGGGCCGAGAAGGACAUGAGGAUCACCCAUGUAUGUUAUUAUCGCGCGUGGCGCAU [Design 86] (Eterna round: R96, puzzle: Exclusion NG 1) | 73.9 | 18.4 | apparent KD of MS2 coat protein [2]: 14.5 nM |
| UCGUUGUGAGGAUAUAUAUGCAGUAAUCCUUUAAAUUUAUAACUUGAGGAUCACCCAAGUAGAAGGCGCGACGU [JR_Ex2_Sub056] (Eterna round: R97, puzzle: Exclusion 2) | 160 | 30.2 | – |
| UCGUUUUUUGAGGAUAUGCGACGUUCCUUCGUCGUAGAAGGCGAUACAUGAGGAUCACCCAUGUUUAUGGGCAU [LRO-Ex6-16] (puzzle: Exclusion 6) | – | – | apparent KD of MS2 coat protein [1]: 109 nM |
| UCUAGCUUUUUGCGUCAAGCAUUGAAGUCUGUUAUCGUUACAUGAGGAUCACCCAUGUUUGUUUUAUGUCGUCUUGA [JR_SV3TOV2_Sub100] (puzzle: Sensor v3, turn-off variant 2) | – | – | apparent KD of MS2 coat protein [3]: 19.3 nM; apparent KD of MS2 coat protein [1]: 15.6 nM; apparent KD of MS2 coat protein [4]: 22.2 nM |
| UCUAGUUGGCAAGGAUAUCCUACAUUGUUCUGGCCCGGGCAUGCUACAUGAGGAUCACCCAUGUGGGAGAAGGUGCGUCAUUGC [Design 22] (Eterna round: R96, puzzle: Exclusion NG 2) | 70.9 | 82.1 | apparent KD of MS2 coat protein [2]: 50.5 nM |
| UCUCGCGGGCAAGGAUAUCCUACGCUGUUCUGGCCCGUGUUUGUUACAUGAGGAUCACCCAUGUGGGAGAAGGUGCACCAGGGC [Design 41] (Eterna round: R96, puzzle: Exclusion NG 2) | 62 | 76.4 | apparent KD of MS2 coat protein [2]: 36.5 nM |
| UCUGCCGCCGUGAGGAUAUGCCCGCGCGCCCGCGGGCAGAAGGCACAUGAGGAUCACCCAUGUCCCGCGGCAUU [salish99_bmx4_r4_128] (Eterna round: R97, puzzle: Brourd's mod of Exclusion 4) | 36.4 | 17.4 | – |
| UCUGGAGCAGGAUAUAUAUGACGUGCUUCGGCACGGUGAGUACAUGAGGAUCACCCAUGUAGAAGGGCUCCAGA [Exclusion 2 (Mod of Brourd's E2/9-D2)] (Eterna round: R97, puzzle: Exclusion 2) | 81.8 | 20.3 | – |
| UCUGGUCGAGGAUAUACAUGAGGAUCACCCAUGUGAUUAGCAGUCCUCGGACUGCAAUGUAGAAGGCGACCAGA [E3/2-A3] (Eterna round: R97, puzzle: Exclusion 3) | 894 | 393 | – |
| UCUGUACAUCCCAAGCAUAACAUGAGGAUCACCCAUGUUGAACAAAACGUCGGUCCUGCUGCUCGUCGAAGGAAUAG [Eternabot (Original) Solution 8] (Eterna round: R97, puzzle: Sensor, turn-off variant 1) | 47.4 | 47.5 | – |
| UCUUACUGAGGAUAUACAUAGAUUUACAUGAGGAUCACCCAUGUUCCUCUAAGUAUAUAUGUAGAAGGCAGAAGAA [Mat - Exclusion 5 - JL Mod - D43] (Eterna round: R97, puzzle: Exclusion 5) | 139 | 370 | – |
| UCUUACUGAGGAUAUACUUAGAUUUACAUGAGGAUCACCCAUGUUCCUCUAUGUAUAUAUGUAGAAGGCAGAAGAA [Mat - Exclusion 5 - JL Mod - D46] (Eterna round: R97, puzzle: Exclusion 5) | 241 | 37.1 | – |
| UCUUGUGUUGAGGAUAUGCGCCGGCUCGCUGGCGCAGAAGGCGGCACAUGAGGAUCACCCAUGUCAGUUCGCGC [salish99_ex6_r004_007] (Eterna round: R97, puzzle: Exclusion 6) | 56.3 | 205 | – |
| UCUUUACAUGAGGAUCACCCAUGUGAGGAUAUGGUUUCGCUGGCCGUAGCCAGUGGAACCAGAAGGCGCGUGAU [Mat - Exclusion 1 - JL Mod - D25] (Eterna round: R97, puzzle: Exclusion 1) | 55.1 | 70.9 | – |
| UCUUUCUUUGUGAGGAUAUGCCCAAAUAAAAGCGGGCAGAAGGCACAUGAGGAUCACCCAUGUCCUGCGGUUUU [salish99_bmx4_r4_147] (Eterna round: R97, puzzle: Brourd's mod of Exclusion 4) | 174 | 16.5 | – |
| UGAAAGCUAGGAUAUACAUGAGGAUCACCCAUGUACCGGCUUGGCCCUGGUCCAAAGUGUAGAAGGAGCACGCC [Reedcedima] (puzzle: Exclusion 3) | – | – | apparent KD of MS2 coat protein [1]: 24.8 nM |
| UGAAAGGUAGGAUAUACGAAGAAAAAGGGUAGAAUAAUAACACAUGAGGAUCACCCAUGUAGAAGGACCAAAGU [Mat - Exclusion 2 - Mod of my Tesla design - D10] (puzzle: Exclusion 2) | – | – | apparent KD of MS2 coat protein [3]: 51.7 nM; apparent KD of MS2 coat protein [1]: 26.2 nM; apparent KD of MS2 coat protein [4]: 24.6 nM |
